Measurements as given in patent publication EP4786492A1.
Values belong to the binder of their own block, whether it stands above or below them.

Assays:
[1] = target: DLL3 endogenously expressed on NCI-H82 cells (UniProt Q9NYJ7); assay: FACS on NCI-H82 cells; antibody 0.8 nM
[2] = target: DLL3 endogenously expressed on NCI-H82 cells (UniProt Q9NYJ7); assay: FACS on NCI-H82 cells; antibody 100 nM
[3] = target: DLL3 endogenously expressed on NCI-H82 cells (UniProt Q9NYJ7); assay: FACS on NCI-H82 cells; antibody 0.16 nM
[4] = target: DLL3 endogenously expressed on NCI-H82 cells (UniProt Q9NYJ7); assay: FACS on NCI-H82 cells; antibody 0.0064 nM
[5] = target: DLL3 endogenously expressed on NCI-H82 cells (UniProt Q9NYJ7); assay: FACS on NCI-H82 cells; antibody 0.00128 nM
[6] = target: DLL3 endogenously expressed on NCI-H82 cells (UniProt Q9NYJ7); assay: FACS on NCI-H82 cells; antibody 20 nM
[7] = target: DLL3 endogenously expressed on NCI-H82 cells (UniProt Q9NYJ7); assay: FACS on NCI-H82 cells; antibody 4 nM
[8] = target: DLL3 endogenously expressed on NCI-H82 cells (UniProt Q9NYJ7); assay: FACS on NCI-H82 cells; antibody 0.032 nM
[9] = target: human DLL3 protein expressed on CHO-K1 recombinant cells (human DLL3 extracellular segment fused to EpCAM transmembrane and intracellular regions) (human) (UniProt Q9NYJ7); assay: FACS, CHO-K1 hDLL3 cells, 20 nM antibody
[10] = target: human DLL3 protein expressed on CHO-K1 recombinant cells (human DLL3 extracellular segment fused to EpCAM transmembrane and intracellular regions) (human) (UniProt Q9NYJ7); assay: FACS, CHO-K1 hDLL3 cells, 0.16 nM antibody
[11] = target: human DLL3 protein expressed on CHO-K1 recombinant cells (human DLL3 extracellular segment fused to EpCAM transmembrane and intracellular regions) (human) (UniProt Q9NYJ7); assay: FACS, CHO-K1 hDLL3 cells, 0.8 nM antibody
[12] = target: human DLL3 protein expressed on CHO-K1 recombinant cells (human DLL3 extracellular segment fused to EpCAM transmembrane and intracellular regions) (human) (UniProt Q9NYJ7); assay: FACS, CHO-K1 hDLL3 cells, 0.0064 nM antibody
[13] = target: human DLL3 protein expressed on CHO-K1 recombinant cells (human DLL3 extracellular segment fused to EpCAM transmembrane and intracellular regions) (human) (UniProt Q9NYJ7); assay: FACS, CHO-K1 hDLL3 cells, 4 nM antibody
[14] = target: human DLL3 protein expressed on CHO-K1 recombinant cells (human DLL3 extracellular segment fused to EpCAM transmembrane and intracellular regions) (human) (UniProt Q9NYJ7); assay: FACS, CHO-K1 hDLL3 cells, 0.00128 nM antibody
[15] = target: human delta-like ligand 3 (DLL3) on SHP77 cells (human) (UniProt Q9NYJ7); assay: FACS on SHP77 cells
[16] = target: human DLL3 protein expressed on CHO-K1 recombinant cells (human DLL3 extracellular segment fused to EpCAM transmembrane and intracellular regions) (human) (UniProt Q9NYJ7); assay: FACS, CHO-K1 hDLL3 cells, 0.032 nM antibody
[17] = target: human DLL3 protein expressed on CHO-K1 recombinant cells (human DLL3 extracellular segment fused to EpCAM transmembrane and intracellular regions) (human) (UniProt Q9NYJ7); assay: FACS, CHO-K1 hDLL3 cells, 100 nM antibody
[18] = target: human DLL3 protein (extracellular segment, His tag) (human) (UniProt Q9NYJ7); assay: SPR (Biacore 8K), antibody captured on Protein A chip, DLL3 antigen in solution, 1:1 Langmuir fit
human DLL3 protein (extracellular segment, His tag) (human), sequence (Q9NYJ7 27-492): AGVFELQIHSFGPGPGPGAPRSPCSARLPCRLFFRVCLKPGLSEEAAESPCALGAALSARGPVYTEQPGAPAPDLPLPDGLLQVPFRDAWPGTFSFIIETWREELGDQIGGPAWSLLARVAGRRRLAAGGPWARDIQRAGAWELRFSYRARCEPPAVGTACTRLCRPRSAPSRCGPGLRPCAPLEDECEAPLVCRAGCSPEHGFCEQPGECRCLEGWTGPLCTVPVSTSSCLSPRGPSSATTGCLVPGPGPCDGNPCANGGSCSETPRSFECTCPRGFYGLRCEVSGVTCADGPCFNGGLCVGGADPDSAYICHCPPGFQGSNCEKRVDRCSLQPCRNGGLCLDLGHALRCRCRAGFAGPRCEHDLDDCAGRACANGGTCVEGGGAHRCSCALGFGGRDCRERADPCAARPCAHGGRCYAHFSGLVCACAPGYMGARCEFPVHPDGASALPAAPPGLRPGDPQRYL

human delta-like ligand 3 (DLL3) on SHP77 cells (human), sequence (Q9NYJ7 27-618, stated change not applied): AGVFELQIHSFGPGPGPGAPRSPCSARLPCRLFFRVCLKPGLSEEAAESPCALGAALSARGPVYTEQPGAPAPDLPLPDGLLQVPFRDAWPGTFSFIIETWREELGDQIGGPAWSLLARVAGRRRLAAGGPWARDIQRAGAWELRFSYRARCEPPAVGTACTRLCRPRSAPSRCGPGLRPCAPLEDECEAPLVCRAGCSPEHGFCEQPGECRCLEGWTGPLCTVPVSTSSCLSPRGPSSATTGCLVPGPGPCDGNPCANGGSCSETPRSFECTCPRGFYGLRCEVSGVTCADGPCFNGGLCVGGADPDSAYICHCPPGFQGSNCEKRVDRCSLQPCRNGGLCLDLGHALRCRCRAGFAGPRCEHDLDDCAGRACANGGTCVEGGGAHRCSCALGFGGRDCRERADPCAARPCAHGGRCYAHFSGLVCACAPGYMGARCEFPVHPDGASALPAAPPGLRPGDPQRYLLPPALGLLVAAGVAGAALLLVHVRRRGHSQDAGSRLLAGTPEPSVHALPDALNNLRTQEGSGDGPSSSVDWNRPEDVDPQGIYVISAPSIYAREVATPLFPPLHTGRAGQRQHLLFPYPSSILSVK
DLL3 endogenously expressed on NCI-H82 cells, sequence (Q9NYJ7 27-618): as the sequence (Q9NYJ7 27-618, stated change not applied) above
human DLL3 protein expressed on CHO-K1 recombinant cells (human DLL3 extracellular segment fused to EpCAM transmembrane and intracellular regions) (human), sequence (Q9NYJ7 other isoform, or with tags, fused parts or gaps limits assumed): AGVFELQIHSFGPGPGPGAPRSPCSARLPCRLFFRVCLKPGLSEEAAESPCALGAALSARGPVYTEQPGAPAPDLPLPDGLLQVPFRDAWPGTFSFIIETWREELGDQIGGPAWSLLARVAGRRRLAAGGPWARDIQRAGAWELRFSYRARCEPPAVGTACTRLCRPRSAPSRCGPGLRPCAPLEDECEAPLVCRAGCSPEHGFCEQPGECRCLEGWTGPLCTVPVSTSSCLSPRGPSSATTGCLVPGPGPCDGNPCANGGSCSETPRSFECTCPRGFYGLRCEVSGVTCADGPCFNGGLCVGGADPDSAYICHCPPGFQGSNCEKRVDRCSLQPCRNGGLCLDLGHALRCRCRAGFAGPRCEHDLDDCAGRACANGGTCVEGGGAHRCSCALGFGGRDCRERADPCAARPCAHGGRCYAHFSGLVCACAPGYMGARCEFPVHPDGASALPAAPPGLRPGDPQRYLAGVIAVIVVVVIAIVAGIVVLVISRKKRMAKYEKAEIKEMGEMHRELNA

MFI [1]: 709
MFI [2]: 870
MFI [3]: 671
MFI [4]: 185
MFI [5]: 124
MFI [6]: 789
MFI [7]: 747
MFI [8]: 377
B4: Hab009VL2aVH1-hFc (Fc fusion, part only; not given: Linker and human IgG1 Fc, not shown: a dimerising Fc or GST)
chain, part: DIVMTQSPLSLPVTPGEPASISCRASQTISDYLHWYLQKPGQSPRLLIKYASQSISGVPDRFSGSGSGTDFTLKISRVEAEDVGVYYCQQGHSFPLTFGQGTKLEIKEVQLVQSGAEVKKPGASVKVSCKASGYTFTSYWMHWVRQAPGQRLEWMGTIYPGNSDTRYNQKFKDRVTITADTSASTAYMELSSLRSEDTAVYYCTRSYDYGDLDYWGQGTTVTVSS

MFI [1]: 422
Kd [18]: 1.25 nM
koff [18]: 0.000203 s⁻¹
kon [18]: 162000 M⁻¹ s⁻¹
MFI [2]: 586
MFI [3]: 416
MFI [4]: 177
MFI [5]: 123
MFI [6]: 488
MFI [7]: 457
MFI [8]: 292
B7: mab006 scFv-hFc (Fc fusion, part only; not given: linker and human IgG1 Fc, not shown: a dimerising Fc or GST)
chain, part: DVQITQSPSYLAASPGETITINCRATKSISKYLAWYQEKPGKTNKLLIFSGSTLQSGIPSRFRGSGSGTDFTLTISSLEPEDFAMYYCQQHHEYPYTFGGGTKLEIKQVQLQQPGAELVRPGTSVKLSCKASGYTFTSYWMHWVRQRPGQGLEWIGVIDPSDSLANYNQEFKGKATLTVDTSSSTAYMQLSSLTSEDSAVYYCARDSTVVAPMDYWGQGTSVTVSS

MFI [1]: 667
Kd [18]: 0.0547 nM
koff [18]: 4.64e-05 s⁻¹
kon [18]: 848000 M⁻¹ s⁻¹
MFI [2]: 1190
MFI [3]: 429
MFI [4]: 134
MFI [5]: 112
MFI [6]: 829
MFI [7]: 702
MFI [8]: 213
B8: mab014 scFv-hFc (Fc fusion, part only; not given: Linker and human IgG1 Fc, not shown: a dimerising Fc or GST)
chain, part: DIQMTQSSSSFSVSLGDRVTITCKASEDIYNRLAWYQQKPGNTPRLLISGATSLETGVPSRFSGSGSGKDFTLSITSLQTEDVATYYCQQYWSLPWTFGGGTKLEIKEVQLHQSGPELVKPGTSVKISCKASGYTFTDYYMNWVKQSHGKSLEWIGDINPNHGDTGYNQKFTGKATLTVDKSSSTAYMELRSLTSEDSAVYYCARNFFYYGTTYGWYFDVWGTGTTVTVSS

MFI [1]: 674
Kd [18]: 0.216 nM
koff [18]: 0.00132 s⁻¹
kon [18]: 6.13e+06 M⁻¹ s⁻¹
MFI [2]: 968
MFI [3]: 673
MFI [4]: 175
MFI [5]: 123
MFI [6]: 833
MFI [7]: 737
MFI [8]: 346
B9: mab009 scFv-hFc (Fc fusion, part only; not given: Linker and human IgG1 Fc, not shown: a dimerising Fc or GST)
chain, part: DIVMTQSPATLSVTPGDRVSLSCRASQTISDYLHWYQQRSHESPRLLIKYASQSISGIPSRFSGSGSGSDFTLSINSVEPEDVGVYYCQNGHSFPLTFGAGTKLELKEVQLQQSGTVLARPGASVKMSCKTSGYTFTSYWMHWVKQSPGQGLEWIGTIYPGNSDTRYNQKFKDKAYVTAVTSASTAYMELSSLTNEESAVYYCTRSYDYGDLDYWGQGTTLTVSS

More lines, now with the values behind:

B1: Hab006VL4VH2-hFc (Fc fusion, part only; not given: Linker and human IgG1 Fc, not shown: a dimerising Fc or GST)
chain, part: DIVMTQSPDSLAVSLGERATINCRATKSISKYLAWYQQKPGQTNKLLIFSGSTLQSGVPDRFSGSGSGTDFTLTISSLQAEDVAVYYCQQHHEYPYTFGGGTKVEIKEVQLVQSGAEVKKPGASVKVSCKASGYTFTSYWMHWVRQAPGQRLEWMGVIDPSDSLANYNQEFKGRVTLTVDTSASTAYMELSSLRSEDTAVYYCARDSTVVAPMDYWGQGTTVTVSS
MFI [1]: 429
MFI [2]: 588
MFI [3]: 385
MFI [4]: 151
MFI [5]: 117
MFI [6]: 494
MFI [7]: 445
MFI [8]: 250

B2: Hab009VL1aVH1-hFc (Fc fusion, part only; not given: Linker and human IgG1 Fc, not shown: a dimerising Fc or GST)
chain, part: DIVMTQSPLSLPVTPGEPASISCRASQTISDYLHWYLQKPGQSPQLLIKYASQSISGVPDRFSGSGSGSDFTLKISRVEAEDVGVYYCQQGHSFPLTFGQGTKLEIKEVQLVQSGAEVKKPGASVKVSCKASGYTFTSYWMHWVRQAPGQRLEWMGTIYPGNSDTRYNQKFKDRVTITADTSASTAYMELSSLRSEDTAVYYCTRSYDYGDLDYWGQGTTVTVSS
MFI [1]: 722
MFI [2]: 888
MFI [3]: 673
MFI [4]: 180
MFI [5]: 122
MFI [6]: 815
MFI [7]: 759
MFI [8]: 379

B3: Hab009VL3aVH1-hFc (Fc fusion, part only; not given: Linker and human IgG1 Fc, not shown: a dimerising Fc or GST)
chain, part: DIVMTQSPLSLPVTPGEPASISCRASQTISDYLHWYLQKSHQSPQLLIKYASQSISGVPDRFSGSGSGTDFTLKISRVEAEDVGVYYCQQGHSFPLTFGQGTKLEIKEVQLVQSGAEVKKPGASVKVSCKASGYTFTSYWMHWVRQAPGQRLEWMGTIYPGNSDTRYNQKFKDRVTITADTSASTAYMELSSLRSEDTAVYYCTRSYDYGDLDYWGQGTTVTVSS
MFI [9]: 13300 MFI
MFI [10]: 5730 MFI
MFI [11]: 11800 MFI
MFI [12]: 458 MFI
MFI [13]: 12800 MFI
MFI [14]: 204 MFI
MFI at 0.00128 nM [15]: 105 MFI
MFI at 0.0064 nM [15]: 128 MFI
MFI at 0.032 nM [15]: 196 MFI
MFI at 0.16 nM [15]: 396 MFI
MFI at 0.8 nM [15]: 673 MFI
MFI at 4 nM [15]: 769 MFI
MFI at 20 nM [15]: 852 MFI
MFI at 100 nM [15]: 954 MFI
MFI [16]: 1500 MFI
MFI [17]: 13400 MFI

B5: Hab015VL4VH6b-hFc (Fc fusion, part only; not given: VL-VH linker and human IgG1 Fc, not shown: another chain or arm of the molecule; a dimerising Fc or GST; small tags and cut ends)
VL: NIVLTQSPATLSLSPGERATLSCKASENVGTYVSWFQQKPGQSPRLLIYGASNRYTGIPARFSGSGSGTDFTLTISSLEPEDFAVYYCGQFYSFPSTFGGGTKVEIK
VH: EVQLVESGGGLVKPGGSLRLSCAASGITFSNFWMNWVRQAPEKGLEWVGQIRLKSDQYATHYAESVKGRFTISREDSKNTVYLQMNSLKTEDTAVYYCTTGYYFDYWGQGTTVTVSS
Kd [18]: 0.0131 nM
koff [18]: 2.5e-05 s⁻¹
kon [18]: 1.91e+06 M⁻¹ s⁻¹

B6: mab008 scFv-hFc (Fc fusion, part only; not given: linker and human IgG1 Fc, not shown: a dimerising Fc or GST)
chain, part: DIVMTQSQKFMSTSVGDRVSITCKASQNVGTAVAWYQQKPGQSPKLLIFSASIRYTGVPDRFTGSGSGTDFTLTISNMQSEDLADYFCQQYSSSPYTFGGGTKLEIKEVQLQQSGPVLVKPGASVKMSCKASGYTFTDYYMNWVKRSHGKSLEWIGIINPYNGGTSYNQKFRGKATLTVDKSSNTAYMELNSLTSEDSAVYYCSRYDYDYDVEGAMDYWGQGTSVTVSS
MFI [1]: 176
Kd [18]: 0.381 nM
koff [18]: 0.00034 s⁻¹
kon [18]: 891000 M⁻¹ s⁻¹
MFI [2]: 537
MFI [3]: 107
MFI [4]: 94
MFI [5]: 113
MFI [6]: 438
MFI [7]: 373
MFI [8]: 95

B10: mab013 scFv-hFc (Fc fusion, part only; not given: linker and human IgG1 Fc, not shown: a dimerising Fc or GST)
scFv, part: DIVLTQSPASLAVSLGQRATISCRASKSVSTSGFSYMHWYQQKPGQPPKLLIYLASNLESGVPARFSGSGSGTDFTLNIHPVEEEDAATYYCQHSRELPFTFGSGTKLEIKQVQLQQSGAELVKPGASVRISCKASGYAFSNYWINWVKQRPGKGLEWIGQINPGDGDTIYNGKFKGKATLTADKSSSTAYMQLSSLTSEDSAVYFCEREGRNYGDFAYWGQGTTLTVSS
Kd [18]: 0.264 nM
koff [18]: 0.00082 s⁻¹
kon [18]: 3.11e+06 M⁻¹ s⁻¹

B11: mab015 scFv-hFc (Fc fusion, part only; not given: linker and human IgG1 Fc, not shown: a dimerising Fc or GST)
chain, part: NIVMTQSPKSMSMSVGERVTLSCKASENVGTYVSWFQQKPEQSPKLLIYGASNRYTGVPDRFTGSGSATDFTLTISSVQAEDLADYHCGQFYSFPCTFGGGTKLEIKEVKLEESGGGLVQPGGSMKLSCVASGITFSNFWMNWVRQSPEKGLEWVAQIRLKSDDYATHYAESVKGRFTISRDDSKGSVYLQMNNLRTEDTGIHYCTTGYYFDYWGQGTTLTVSS
MFI [1]: 1120
Kd [18]: 0.000597 nM
koff [18]: 1.46e-06 s⁻¹
kon [18]: 2.45e+06 M⁻¹ s⁻¹
MFI [2]: 1680
MFI [3]: 588
MFI [4]: 135
MFI [5]: 113
MFI [6]: 1360
MFI [7]: 1190
MFI [8]: 218
